Measured values taken from patent publication US20210309745A1 (TAYU HUAXIA BIOTECH MEDICAL GROUP, published 2021).

Target: hPD-L1 (antigen of the Fortebio Octet assay) (human, UniProt Q9NZQ7 19-238, limits assumed)
Test: BLI, Fortebio Octet; format not stated
Description: The anti-hPD-L1 scFv-hFc Wt and scFv-hFc Mt antibodies were identified by SDS Page Gel […]. […] The binding affinities of the scFv-hFc antibodies to hPD-L1, as compared to that of the parental antibody were examined by FACS and the results are shown in FIG. 7. […] The binding affinities and kinetics of the scFv-hFc antibodies (scFv-hFc Wt and scFv-hFc Mt) to hPD-L1, as compared to that of the parental antibody (anti-PD-L1 IgG1), were further analyzed using the Fortebio Octet system.

hPD-L1 (antigen of the Fortebio Octet assay), sequence (Q9NZQ7 19-238 limits assumed): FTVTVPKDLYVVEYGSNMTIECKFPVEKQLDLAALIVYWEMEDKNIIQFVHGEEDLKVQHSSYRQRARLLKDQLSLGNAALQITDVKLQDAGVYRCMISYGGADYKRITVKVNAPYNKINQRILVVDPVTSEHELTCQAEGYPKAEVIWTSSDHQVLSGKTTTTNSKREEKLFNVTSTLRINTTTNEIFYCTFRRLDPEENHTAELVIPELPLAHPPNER

- koff: 2.72e-05 s⁻¹
B1: anti-PD-L1 IgG1 (parental antibody of Example 3) (antibody, V domains shown)
VH: EVQLQQSGAELVKPGASVKLSCTASGFNIKDTYMYWVKQRPEQGLECIGRIDPANDNTKYDPKFQGKATITADTSSNTAYVQLASLTSEDTAVYYCARAKNLLNYFDYWGQGTTLTVSS
VL: DIQMTQSPSSLSASLGERVTLSCRASQEISGYLSWLQQKPDGTIKRLIYATSTLDSGVPKRFSGSRSGSDYSLTISSLESEDFADYYCLQYAIYPLTFGAGTKLELKR
notes: IgG1; also called parental control antibody
